# Source: patent publication US6528619B1, “Inhibitors for urokinase receptor” (Roche Diagnostics GmbH, priority 1997, dated 2003)
# Positions of bridges follow the written chain, without caps; N, C: chain ends. Residues, ends and D or L forms follow the SMILES beside them. No end group written: not given here.
# Columns and labels:
# recombinant human uPAR = biological target: T1, recombinant human uPAR (Homo sapiens, UniProt Q03405); assay: Microtitre plate solid phase ATF-ligand binding test (competition with ATF for uPAR); details: for inhibition of the binding of ATF to uPAR / uPAR binding capacity: 0.6 ng ATF together with 15 μg synthetic peptide per ml, FIG. 2
# T1 construct: made in house; host or cells: CHO cells
# T1 sequence (Q03405 23-299 limits assumed): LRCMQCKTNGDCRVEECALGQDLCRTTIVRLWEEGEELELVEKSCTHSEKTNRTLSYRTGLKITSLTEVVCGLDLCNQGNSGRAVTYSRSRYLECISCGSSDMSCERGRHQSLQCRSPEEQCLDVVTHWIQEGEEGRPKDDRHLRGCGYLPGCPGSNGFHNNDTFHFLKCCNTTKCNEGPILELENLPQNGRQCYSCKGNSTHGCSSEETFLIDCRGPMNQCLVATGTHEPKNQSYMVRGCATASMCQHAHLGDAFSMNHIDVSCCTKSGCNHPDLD
# Procedure: In addition to the flow cytometric analyses, a solid phase ATF-ligand binding test was carried out in order to examine the interactions of synthetic peptides with the uPAR. For this microtitre plates were coated with recombinant human uPAR from CHO cells (Wilhelm et al., FEBS Lett. 337 (1994), 131-134; Magdolen et al., Electrophoresis 16 (1995), 813-816) and the remaining protein-binding sites were saturated with 2% BSA (weight/vol.). After incubation with the samples (0.6 ng ATF together with 15 μg synthetic peptide per ml) and several wash steps, the amount of ATF which had bound to the immobilized uPAR on the microtitre plate was determined using a biotinylated monoclonal mouse antibody against the kringle domain of ATF (No. 377, American Diagnostics, Greenwich, Conn., USA) and subsequent addition of avidin-peroxidase conjugate and 3,3′,5,5′-tetramethylbenzidine/[…] as a substrate for the peroxidase. The presence of synthetic peptides which compete with the ATF binding to uPAR reduces the conversion of the chromogenis substrate.
# A series of peptides with variable sequence regions from the receptor binding region of uPA were synthesized and were increasingly shortened at the amino terminus starting with uPA10-32. The microtitre plate solid phase binding test described in 1.4 was used to determine the inhibitory capacity of these peptides.
# [1] = biological target: T2, cell surface-associated uPAR (Homo sapiens, UniProt Q03405); assay: Flow cytometry: inhibition of binding of FITC-conjugated pro-uPA to cell surface-associated uPAR on PMA-stimulated U937 cells
# T2 construct: After stimulation with PMA the U937 cells expressed considerable amounts of cell surface-associated uPAR; endogenous in cells; host or cells: U937 cells stimulated with PMA
# T2 sequence (Q03405 23-305): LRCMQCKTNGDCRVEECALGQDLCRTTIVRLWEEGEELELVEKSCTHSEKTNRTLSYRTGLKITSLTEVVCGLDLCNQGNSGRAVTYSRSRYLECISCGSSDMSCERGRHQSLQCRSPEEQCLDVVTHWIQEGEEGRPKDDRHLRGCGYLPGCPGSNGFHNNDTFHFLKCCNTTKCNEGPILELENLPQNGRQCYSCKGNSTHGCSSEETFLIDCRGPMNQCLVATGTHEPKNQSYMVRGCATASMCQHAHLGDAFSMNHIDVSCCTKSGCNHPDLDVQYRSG
# Procedure: The ability of the synthetic peptides to inhibit the uPA/-uPAR interaction was determined by means of flow cytometry on a FACScan flow cytometer (Becton-Dickinson, Heidelberg, Germany) using the human promyeloid cell line U937 as a source of cellular native uPAR (Chuchulowski et al., Fibrinolysis 6, Suppl. 4 (1992), 95-102; Magdolen et al., (1996), supra). The U937 cells were stimulated with […] phorbol-12-myristate-13-acetate (PMA) for 48 h. After stimulation with PMA the U937 cells expressed considerable amounts of cell surface-associated uPAR.
# The stimulated cells were treated for 1 min at room temperature with 50 mM glycine HCl, 0.1 NaCl, pH 3.6 in order to dissociate endogenous receptor-bound uPA. Subsequently the acidic buffer was neutralized with 0.5 M HEPES-100 mM NaCl, pH 7.5. The cells were then immediately washed twice with PBS/0.1% bovine serum albumin (BSA) and centrifuged for 10 min at room temperature and 300×g. The cells were resuspended in PBS/0.1% BSA, adjusted to a concentration of 10^6 cells per ml and simultaneously incubated for 45 minutes at room temperature with 16 ng FITC-conjugated pro-uPA and various amounts of the synthetic peptides. Before the analysis, propidium iodide, a fluorescent dye which specifically binds double-stranded DNA, was added to each sample in order to determine the viability of the analysed U937 cells. Damaged, propidium iodide-labelled cells were excluded from the analysis.
# For this the purified peptides were analysed by mass spectroscopy, quantified by amino acid analysis and then tested by flow cytometry according to the method described in 1.3 for their ability to inhibit the binding of fluorescent-labelled pro-uPA to the uPA receptor on U937 cells.
# [2] = Stability of binding activity after long storage in aqueous solution or repeated freeze/thaw cycles; assay type: physicochemical; details: compared with linear uPA19-31
# [3] = biological target: T3, cell surface-associated uPA receptor (uPAR) on PMA-stimulated human U937 cells (human, UniProt Q03405 23-305); assay: flow cytometry, competition with FITC-pro-uPA on U937 cells (section 2.1)
# T3 construct: whole, on cells; also called urokinase receptor; cellular native uPAR
# T3 sequence (Q03405 23-305): as above
# Procedure: (§1) The U937 cells were stimulated with […] phorbol-12-myristate-13-acetate (PMA) for 48 h.
# (§2) Subsequently the acidic buffer was neutralized with 0.5 M HEPES-100 mM NaCl, pH 7.5. The cells were then immediately washed twice with PBS/0.1% bovine serum albumin (BSA) and centrifuged for 10 min at room temperature and 300×g. […] Before the analysis, propidium iodide, a fluorescent dye which specifically binds double-stranded DNA, was added to each sample in order to determine the viability of the analysed U937 cells. Damaged, propidium iodide-labelled cells were excluded from the analysis.
# [4] = biological target: T3, cell surface-associated uPA receptor …; assay: flow cytometry, competition with FITC-pro-uPA on U937 cells
# Procedure: as §1, §2
# [5] = biological target: T4, recombinant human uPAR from CHO cells (human, UniProt Q03405 23-299, limits assumed); assay: solid phase ATF-ligand binding test, competition with ATF on immobilized recombinant uPAR
# T4 construct: Magdolen et al. 1995; also called immobilized uPAR
# T4 sequence (Q03405 23-299 limits assumed): as the sequence (Q03405 23-299 limits assumed) above
molecule,measurement,setting,value
CC[C@H](C)[C@H](NC(=O)[C@H](CC(N)=O)NC(=O)[C@H](CO)NC(=O)[C@H](Cc1ccccc1)NC(=O)[C@H](Cc1ccc(O)cc1)NC(=O)[C@H](CCCCN)NC(=O)[C@H](CC(N)=O)NC(=O)[C@H](CO)NC(=O)[C@@H](NC(=O)[C@H](CS)NC(=O)[C@@H](NC(=O)CNC(=O)CN)[C@@H](C)O)C(C)C)C(=O)N[C@@H](Cc1c[nH]cn1)C(=O)N[C@@H](Cc1c[nH]c2ccccc12)C(=O)N[C@@H](CS)C(=O)N[C@@H](CC(N)=O)C(=O)O [uPA16-32] (H-GGTCVSNKYFSNIHWCN-OH; N-terminus and C-terminus assumed),inhibition of the binding of ATF to uPAR / uPAR binding capacity,recombinant human uPAR,effectively inhibit the binding of ATF to uPAR
same,IC50,[1],~3.2 µM
same,molar excess resulting in a 50% inhibition of the binding of uPA,"[1]; U937 cells, 16 ng FITC-conjugated pro-uPA, 45 min, room temperature","approximately 3,000 molar excess"
same,higher affinity to uPAR compared to the two other peptides,[1]; versus uPA12-32 [C19A] and clone 20 peptide,4- to 5 fold
"cyclo^19,31uPA19-31: cyclic peptide which contains an intramolecular disulfide bond between the cysteine residues at positions 19 and 31 (CVSNKYFSNIHWC; disulfide 1-13)",inhibition of the binding of uPA to the uPA receptor,recombinant human uPAR; cyclic peptide with disulfide bond between Cys 19 and 31,still able to inhibit the binding of uPA to the uPA receptor
same,stability of binding activity,[2],significantly more stable
"uPA10-32: peptide from the receptor binding region of uPA, amino acids 10-32 (NCDCLNGGTCVSNKYFSNIHWCN)",inhibition of the binding of ATF to uPAR / uPAR binding capacity,recombinant human uPAR,effectively inhibit the binding of ATF to uPAR
uPA12-31: peptide from the receptor binding region of uPA (DCLNGGTCVSNKYFSNIHWC),inhibition of the binding of ATF to uPAR / uPAR binding capacity,recombinant human uPAR,effectively inhibit the binding of ATF to uPAR
uPA14-32: peptide having the amino acids 14 to 32 of uPA (LNGGTCVSNKYFSNIHWCN) [reference compound],inhibition of the binding of ATF to uPAR / uPAR binding capacity,recombinant human uPAR,effectively inhibit the binding of ATF to uPAR
uPA17-32: peptide from the receptor binding region of uPA (GTCVSNKYFSNIHWCN),inhibition of the binding of ATF to uPAR / uPAR binding capacity,recombinant human uPAR,considerably reduced uPAR binding capacities
uPA18-30: linear peptide from the receptor binding region of uPA (TCVSNKYFSNIHW),inhibition of the binding of ATF to uPAR / uPAR binding capacity,recombinant human uPAR,no significant binding capacity
uPA18-34: peptide from the receptor binding region of uPA (TCVSNKYFSNIHWCNCP),inhibition of the binding of ATF to uPAR / uPAR binding capacity,recombinant human uPAR,considerably reduced uPAR binding capacities
uPA20-30: linear peptide from the receptor binding region of uPA (VSNKYFSNIHW),inhibition of the binding of ATF to uPAR / uPAR binding capacity,recombinant human uPAR,no significant binding capacity
uPA20-32: linear peptide from the receptor binding region of uPA (VSNKYFSNIHWCN),inhibition of the binding of ATF to uPAR / uPAR binding capacity,recombinant human uPAR,no significant binding capacity
uPA20-34: peptide from the receptor binding region of uPA (VSNKYFSNIHWCNCP),inhibition of the binding of ATF to uPAR / uPAR binding capacity,recombinant human uPAR,does not bind at all to the uPAR
CVSNKYFSNIHWC (Linear form) [linear peptide uPA19-31],IC50,[3],~0.8 µM
AEPMPHSLNFSQYLWYT [clone 20-peptide AEPMPHSLNFSQYLWYT],molar excess for 50% inhibition of the binding of uPA,[4],~12000 fold molar excess
"GGTCVSNKYFSNIHWCN (peptide, UniProt P00749 36-52, looked up, range 16-32) [uPA16-32]",molar excess for 50% inhibition of the binding of uPA,[4],~3000 fold molar excess
"VSNKYFSNIHWCNCP (peptide, UniProt P00749 40-54, looked up, range 40-54) [uPA20-34]",binding result,[5],no binding (tested: 15 µg synthetic peptide per ml)
"TCVSNKYFSNIHW (peptide, UniProt P00749 38-50, looked up, range 18-30) [uPA18-30]",binding result,[5],no binding (tested: 15 µg synthetic peptide per ml)
"VSNKYFSNIHWCN (peptide, UniProt P00749 40-52, looked up, range 40-52) [uPA20-32]",binding result,[5],no binding (tested: 15 µg synthetic peptide per ml)
